# Results published in patent EP0733063B1.
# Values joined by “and” are separate entries in the source; they are usually repeats but may differ in a detail not shown here. Identical values can stand only once.
# Tests used:
# [1] = target: purified monoclonal anti-hCG antibody (anti-hCG-A antibody, gift from Organon Technika); assay: ratio of affinity constants of hCG and of the oligopeptide for the antibody
# [2] = target: purified monoclonal anti-hCG antibody (anti-hCG-A antibody, gift from Organon Technika); assay: fluorescence anisotropy displacement, non-linear curve fitting by Equation (6), 6 C
substance,measurement,setting,value
"human chorionic gonadotrophin (hCG), highly purified, intact (from UniProt P01215 25-116; P0DN86 21-165) (ligand)",fold higher binding affinity than the oligopeptide,[1],300 fold and 500 fold
same,Ka,[2],9.4e+09 M⁻¹
